Earlier results in patent publication US10463717B2, “Compositions in the form of an injectable aqueous solution comprising amylin, an amylin receptor agonist or an amylin analog, and a co-polyamino acid” (ADOCIA, priority 2016, dated 2019).
Like-named read-outs stand apart in the source and are kept apart here. No end group written: not given here.

pH of the solution above which fibrils form (described for the marketed peptide) | Compound | Stability of amylin in solution (acidic pH) | Stability of amylin in solution (neutral pH)
higher than 5.5 | CC[C@H](C)[C@H](NC(=O)[C@@H]1CCCN1C(=O)CNC(=O)[C@H](Cc1ccccc1)NC(=O)[C@H](CC(N)=O)NC(=O)[C@H](CC(N)=O)NC(=O)[C@H](CO)NC(=O)[C@H](CO)NC(=O)[C@H](Cc1c[nH]cn1)NC(=O)[C@@H](NC(=O)[C@H](CC(C)C)NC(=O)[C@H](Cc1ccccc1)NC(=O)[C@H](CC(N)=O)NC(=O)[C@H](C)NC(=O)[C@H](CC(C)C)NC(=O)[C@H](CCCNC(=N)N)NC(=O)[C@H](CCC(N)=O)NC(=O)[C@@H](NC(=O)[C@H](C)NC(=O)[C@@H]1CSSC[C@H](NC(=O)[C@@H](N)CCCCN)C(=O)N[C@@H](CC(N)=O)C(=O)N[C@@H]([C@@H](C)O)C(=O)N[C@@H](C)C(=O)N[C@@H]([C@@H](C)O)C(=O)N1)[C@@H](C)O)C(C)C)C(=O)N[C@@H](CC(C)C)C(=O)N1CCC[C@H]1C(=O)N1CCC[C@H]1C(=O)N[C@H](C(=O)N[C@@H](CC(N)=O)C(=O)N[C@H](C(=O)NCC(=O)N[C@@H](CO)C(=O)N[C@@H](CC(N)=O)C(=O)N[C@H](C(=O)N[C@@H](Cc1ccc(O)cc1)C(N)=O)[C@@H](C)O)C(C)C)[C@@H](C)O [pramlintide, reference compound] |  | 
 | amylin: 37 aminoacids peptide which is co-stored and co-secreted with insulin (KCNTATCATQRLANFLVHSSNNFGAILSSTNVGSNTY; not fully specified (C-terminus, bridges); cysteine pairing not given here; UniProt P10997 34-70, looked up) | about fifteen minutes | less than a minute
